Results from publication PMC5453243.

Substrate: CCn1c(=NN=c2sc3cc(S(=O)(=O)O)ccc3n2CC)sc2cc(S(=O)(=O)O)ccc21
Assay: purified protein
Conditions: 1 mM H2O2, 50 mM KH2PO4 pH 6.5, 30 °C

B1: soluble HRP P. pastoris (Armoracia rusticana) (protein)
chain: QLTPTFYDNSCPNVSNIVRDTIVNELRSDPRIAASILRLHFHDCFVNGCDASILLDNTTSFRTEKDAFGNANSARGFPVIDRMKAAVESACPRTVSCADLLTIAAQQSVTLAGGPSWRVPLGRRDSLQAFLDLANANLPAPFFTLPQLKDSFRNVGLNRSSDLVALSGGHTFGKNQCRFIMDRLYNFSNTGLPDPTLNTTYLQTLRGLCPLNGNLSALVDFDLRTPTIFDNKYYVNLEEQKGLIQSDQELFSSPNATDTIPLVRSFANSTQTFFNAFVEAMDRMGNITPLTGTQGQIRLNCRVVNSNS
Work on B1 yielded a Vmax of 152 µmol/min/mg.

B2: refolded HRP E. coli (HRP C1A refolded from inclusion bodies) (Armoracia rusticana) (protein)
chain: QLTPTFYDNSCPNVSNIVRDTIVNELRSDPRIAASILRLHFHDCFVNGCDASILLDNTTSFRTEKDAFGNANSARGFPVIDRMKAAVESACPRTVSCADLLTIAAQQSVTLAGGPSWRVPLGRRDSLQAFLDLANANLPAPFFTLPQLKDSFRNVGLNRSSDLVALSGGHTFGKNQCRFIMDRLYNFSNTGLPDPTLNTTYLQTLRGLCPLNGNLSALVDFDLRTPTIFDNKYYVNLEEQKGLIQSDQELFSSPNATDTIPLVRSFANSTQTFFNAFVEAMDRMGNITPLTGTQGQIRLNCRVVNSNS
In the case of B2, the Km (ABTS 0.005–10 mM) is reported as 1250 ± 100 µM and the Vmax (ABTS 0.005–10 mM) is reported as 62.5 µmol/min/mg.
